Tests used:
IkBα, P25963 = molecular target: T1, IkBα, P25963
T1 chain: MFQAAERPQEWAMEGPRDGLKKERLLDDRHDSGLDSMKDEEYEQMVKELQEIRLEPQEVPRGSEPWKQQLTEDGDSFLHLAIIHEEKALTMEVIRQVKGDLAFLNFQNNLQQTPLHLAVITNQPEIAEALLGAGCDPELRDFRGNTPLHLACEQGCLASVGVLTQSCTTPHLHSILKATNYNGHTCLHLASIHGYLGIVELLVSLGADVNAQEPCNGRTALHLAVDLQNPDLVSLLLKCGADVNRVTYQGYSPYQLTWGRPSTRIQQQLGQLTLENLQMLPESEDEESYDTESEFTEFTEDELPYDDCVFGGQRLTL

B1: purified topors (protein)
chain: MGSQPPLGSPLSREEGEAPPPAPASEGRRRSRRVRLRGSCRHRPSFLGCRELAASAPARPAPASSEIMASAAKEFKMDNFSPKAGTSKLQQTVPADASPDSKCPICLDRFDNVSYLDRCLHKFCFRCVQEWSKNKAECPLCKQPFDSIFHSVRAEDDFKEYVLRPSYNGSFVTPDRRFRYRTTLTRERNASVYSPSGPVNRRTTTPPDSGVLFEGLGISTRPRDVEIPQFMRQIAVRRPTTADERSLRKIQEQDIINFRRTLYRAGARVRNIEDGGRYRDISAEFFRRNPACLHRLVPWLKRELTVLFGAHGSLVNIVQHIIMSNVTRYDLESQAFVSDLRPFLLNRTEHFIHEFISFARSPFNMAAFDQHANYDCPAPSYEEGSHSDSSVITISPDEAETQELDINVATVSQAPWDDETPGPSYSSSEQVHVTMSSLLNTSDSSDEELVTGGATSQIQGVQTNDDLNNDSDDSSDNCVIVGFVKPLAERTPELVELSSDSEDLGSYEKMETVKTQEQEQSYSSGDSDVSRCSSPHSVLGKDEQINKGHCDSSTRIKSKKEEKRSTSLSSPRNLNSSVRGDRVYSPYNHRHRKRGRSRSSDSRSQSRSGHDQKNHRKHHGKKRMKSKRSRSRESSRPRGRRDKKRSRTRDSSWSRRSQTLSLSSESTSRSRSRSSDHGKRRSRSRNRDRYYLRNNYGSRYKWEYTYYSRNKDRDGYESSYRRRTLSRAHYSRQSSSPEFRVQSFSERTNARKKNNHSERKYYYYERHRSRSLSSNRSRTASTGTDRVRNEKPGGKRKYKTRHLEGTNEVAQPSREFASKAKDSHYQKSSSKLDGNYKNESDTFSDSRSSDRETKHKRRKRKTRSLSVEIVYEGKATDTTKHHKKKKKKHKKKHKKHHGDNASRSPVVITIDSDSDKDSEVKEDTECDNSGPQDPLQNEFLAPSLEPFETKDVVTIEAEFGVLDKECDIATLSNNLNNANKTVDNIPPLAASVEQTLDVREESTFVSDLENQPSNIVSLQTEPSRQLPSPRTSLMSVCLGRDCDMS
IkBα, P25963
  sumoylation of IkBα in vitro: Topors also activates sumoylation of p53, but not IkBα
p53, P04637
p53, P04637, sequence (P04637 whole entry, looked up): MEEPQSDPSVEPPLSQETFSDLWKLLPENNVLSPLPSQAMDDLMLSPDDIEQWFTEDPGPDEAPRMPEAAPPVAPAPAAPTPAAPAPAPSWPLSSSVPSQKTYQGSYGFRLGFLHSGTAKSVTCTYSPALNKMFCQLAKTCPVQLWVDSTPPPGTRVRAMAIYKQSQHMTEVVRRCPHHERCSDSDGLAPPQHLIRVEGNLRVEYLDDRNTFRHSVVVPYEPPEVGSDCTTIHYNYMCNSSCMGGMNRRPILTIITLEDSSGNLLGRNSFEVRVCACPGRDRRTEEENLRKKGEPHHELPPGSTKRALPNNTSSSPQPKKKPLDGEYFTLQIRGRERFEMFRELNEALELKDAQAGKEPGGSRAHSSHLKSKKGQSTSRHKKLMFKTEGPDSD
  sumoylation of p53 in vitro: Topors also activates sumoylation of p53, but not IkBα
